From paper PMC6336717

What was measured:
C3b (human) [1] = target: C3b (human) (UniProt P01024); assay: ELISA; competition: C3b coated on the plate; FH 25 nM and WT Sbi-III-IV 1,000 nM with a concentration series of FHRs, FH19-20 or FHR-1 1-2; 1 h 37°C, PBST-2% BSA; FH bound detected with OX-24
C3b (human) [2] = target: C3b (human) (UniProt P01024); assay: ELISA; competition: C3b coated on the plate (0.25 ug/well); FH 25 nM with a concentration series of FHRs, FH19-20 or FHR-1 1-2, no Sbi; 1 h 37°C, PBST-2% BSA; FH bound detected with OX-24

Sequence of factor H-related protein 1 (FHR-1), recombinant (Q03591 19-330): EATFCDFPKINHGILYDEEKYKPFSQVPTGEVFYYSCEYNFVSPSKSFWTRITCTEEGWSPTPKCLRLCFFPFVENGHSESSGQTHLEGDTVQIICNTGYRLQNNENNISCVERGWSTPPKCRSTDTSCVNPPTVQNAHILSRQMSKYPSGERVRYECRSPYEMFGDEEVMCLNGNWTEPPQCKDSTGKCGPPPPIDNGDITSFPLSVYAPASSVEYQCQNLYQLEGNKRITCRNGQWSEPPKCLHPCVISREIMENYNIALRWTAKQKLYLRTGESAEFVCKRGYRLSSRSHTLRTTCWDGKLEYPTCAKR

percent residual FH bound to C3b at the highest FHR-1 concentration, with Sbi-III-IV WT (C3b (human) [1]): 0%
percent residual FH bound to C3b at the lowest FHR-1 concentration, with Sbi-III-IV WT (C3b (human) [1]): 25%
percent residual FH bound to C3b at the highest FHR-1 concentration (C3b (human) [2]): 30%
percent residual FH bound to C3b at the lowest FHR-1 concentration (C3b (human) [2]): 70%
Substance: factor H-related protein 1 (FHR-1), recombinant (from UniProt Q03591 19-330) (natural protein)
